The values below are quoted from earlier work in PMC2913173.

The target of the data set is Bcl-2 (Homo sapiens) (UniProt P10415). The data set can be described thus: fluorescence polarization.
Chain of Bcl-2 (Homo sapiens) (P10415 whole entry): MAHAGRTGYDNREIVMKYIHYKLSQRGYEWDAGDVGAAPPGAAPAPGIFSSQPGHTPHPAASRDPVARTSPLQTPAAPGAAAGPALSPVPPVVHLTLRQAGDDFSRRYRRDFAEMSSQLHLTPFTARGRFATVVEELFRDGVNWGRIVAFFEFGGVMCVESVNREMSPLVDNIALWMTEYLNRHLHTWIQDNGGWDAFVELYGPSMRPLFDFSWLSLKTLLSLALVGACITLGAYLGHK

With Bak 72-87 (from UniProt Q16611), the Kd is 1600 nM.
